The record followed here is patent US20120183570A1 (WASHINGTON STATE UNIVERSITY, published 2012).

Experiment [1] has as its target T1, Fn gelatin-binding domain (GBD), 40 kDa fragment (human, UniProt P02751 291-630).
T1 construct: also called Fn-GBD
The experiment in a line: ELISA on GBD-coated wells, anti-GST detection. Background: In an ELISA, binding on a coated surface is turned into a signal by an enzyme label.

For experiment [2], the target named is T2, Human plasma fibronectin (Fn) (human, UniProt P02751-9 32-2240, limits assumed).
T2 construct: It is treated as the same molecule; also called full-length Fn
As to the kind of experiment: ELISAs with GST domain fusions and Fn.

The target of experiment [3] is T3, Fn N-terminal domain (NTD), 30 kDa fragment (human, UniProt P02751 32-290).
T3 construct: domain: N-terminal domain (NTD), FN1 1-5; also called 30 kDa NTD; 30-kDa proteolytic fragment from human Fn
The experiment in a line: ELISA on NTD-coated wells, anti-GST detection.

For another experiment, the target named is T4, Ovalbumin (UniProt P01012 2-386).
T4 construct: also called ovalbumin (negative control)
T4 sequence: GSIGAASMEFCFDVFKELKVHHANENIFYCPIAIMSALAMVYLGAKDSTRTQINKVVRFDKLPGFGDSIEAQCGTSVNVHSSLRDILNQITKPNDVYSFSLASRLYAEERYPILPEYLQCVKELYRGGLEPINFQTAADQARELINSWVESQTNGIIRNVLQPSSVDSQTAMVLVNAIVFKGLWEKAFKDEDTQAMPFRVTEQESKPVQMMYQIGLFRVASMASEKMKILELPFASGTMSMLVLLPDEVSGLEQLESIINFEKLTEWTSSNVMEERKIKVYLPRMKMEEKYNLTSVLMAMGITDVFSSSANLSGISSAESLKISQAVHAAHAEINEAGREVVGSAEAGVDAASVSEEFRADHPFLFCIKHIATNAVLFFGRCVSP
The experiment in a line: ELISA on ovalbumin-coated wells, anti-GST detection.

For experiment [4], the target named is T1, Fn gelatin-binding domain (GBD), 40 kDa …. As to the kind of experiment: ELISA, GST fusion on GBD-coated wells (FIG. 22).
Experiment [5] concerns the target T2, Human plasma fibronectin (Fn). The experiment in a line: ELISA, Fn on peptide-coated wells.
Experiment [6] has as its target Bovine serum albumin (BSA) (bovine, UniProt P02769 25-607). The experiment in a line: ELISA on BSA-coated wells, anti-GST detection.

T2 sequence (P02751 other isoform, or with tags, fused parts or gaps limits assumed): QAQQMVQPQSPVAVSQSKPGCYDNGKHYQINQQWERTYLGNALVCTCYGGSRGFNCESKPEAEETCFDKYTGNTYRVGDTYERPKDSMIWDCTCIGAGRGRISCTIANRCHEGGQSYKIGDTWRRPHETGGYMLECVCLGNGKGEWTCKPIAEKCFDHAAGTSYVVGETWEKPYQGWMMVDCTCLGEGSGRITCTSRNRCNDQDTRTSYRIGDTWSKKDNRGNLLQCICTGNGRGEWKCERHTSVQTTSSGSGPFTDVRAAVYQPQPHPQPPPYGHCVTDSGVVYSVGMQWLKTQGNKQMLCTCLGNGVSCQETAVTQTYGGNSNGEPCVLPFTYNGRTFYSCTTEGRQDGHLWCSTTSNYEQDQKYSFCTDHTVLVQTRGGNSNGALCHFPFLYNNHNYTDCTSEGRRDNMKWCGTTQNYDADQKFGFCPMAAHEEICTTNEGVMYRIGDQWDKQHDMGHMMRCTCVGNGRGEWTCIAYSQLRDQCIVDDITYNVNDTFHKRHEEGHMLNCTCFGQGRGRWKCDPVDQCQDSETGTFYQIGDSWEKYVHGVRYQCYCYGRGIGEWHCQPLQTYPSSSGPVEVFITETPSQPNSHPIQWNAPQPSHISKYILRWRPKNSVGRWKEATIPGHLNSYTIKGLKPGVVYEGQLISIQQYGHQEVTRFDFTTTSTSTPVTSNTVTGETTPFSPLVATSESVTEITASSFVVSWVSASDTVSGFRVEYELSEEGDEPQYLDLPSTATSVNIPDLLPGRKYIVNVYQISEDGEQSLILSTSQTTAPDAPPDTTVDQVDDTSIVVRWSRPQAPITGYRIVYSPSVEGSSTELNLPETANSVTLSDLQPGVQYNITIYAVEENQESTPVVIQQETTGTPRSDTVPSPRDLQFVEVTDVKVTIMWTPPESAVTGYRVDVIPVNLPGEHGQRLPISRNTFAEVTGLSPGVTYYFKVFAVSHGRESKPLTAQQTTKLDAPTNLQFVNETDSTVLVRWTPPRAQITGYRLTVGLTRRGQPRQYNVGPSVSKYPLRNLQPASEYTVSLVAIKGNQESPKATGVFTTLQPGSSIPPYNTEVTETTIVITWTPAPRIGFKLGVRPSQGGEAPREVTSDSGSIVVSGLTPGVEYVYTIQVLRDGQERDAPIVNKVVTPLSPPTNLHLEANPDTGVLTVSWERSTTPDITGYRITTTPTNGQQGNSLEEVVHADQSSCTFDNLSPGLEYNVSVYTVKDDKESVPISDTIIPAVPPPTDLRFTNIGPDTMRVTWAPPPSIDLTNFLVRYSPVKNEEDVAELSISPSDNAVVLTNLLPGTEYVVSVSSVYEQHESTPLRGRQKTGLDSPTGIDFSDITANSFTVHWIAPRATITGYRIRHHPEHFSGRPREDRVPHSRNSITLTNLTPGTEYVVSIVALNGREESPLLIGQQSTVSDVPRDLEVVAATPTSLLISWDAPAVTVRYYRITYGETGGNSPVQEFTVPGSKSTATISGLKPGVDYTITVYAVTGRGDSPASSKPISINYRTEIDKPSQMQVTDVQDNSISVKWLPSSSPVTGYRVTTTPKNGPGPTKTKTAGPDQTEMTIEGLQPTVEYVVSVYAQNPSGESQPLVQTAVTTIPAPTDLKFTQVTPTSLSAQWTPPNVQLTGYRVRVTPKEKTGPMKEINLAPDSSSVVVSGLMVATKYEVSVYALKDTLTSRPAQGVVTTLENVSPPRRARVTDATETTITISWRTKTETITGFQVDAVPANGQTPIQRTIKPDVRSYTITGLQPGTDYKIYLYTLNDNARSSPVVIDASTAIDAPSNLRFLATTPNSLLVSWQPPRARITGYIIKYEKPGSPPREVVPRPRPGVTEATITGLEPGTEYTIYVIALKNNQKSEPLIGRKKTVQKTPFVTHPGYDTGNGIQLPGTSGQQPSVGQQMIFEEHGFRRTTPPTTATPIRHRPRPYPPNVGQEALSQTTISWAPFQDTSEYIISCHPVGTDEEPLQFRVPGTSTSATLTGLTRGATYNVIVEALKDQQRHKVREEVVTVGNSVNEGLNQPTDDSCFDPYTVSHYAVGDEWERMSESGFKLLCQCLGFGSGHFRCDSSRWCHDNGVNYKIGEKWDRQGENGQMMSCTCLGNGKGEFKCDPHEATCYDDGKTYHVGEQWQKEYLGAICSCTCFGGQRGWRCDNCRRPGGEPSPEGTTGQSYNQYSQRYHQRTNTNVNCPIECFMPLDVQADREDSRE
T1 sequence (P02751 291-630 limits assumed): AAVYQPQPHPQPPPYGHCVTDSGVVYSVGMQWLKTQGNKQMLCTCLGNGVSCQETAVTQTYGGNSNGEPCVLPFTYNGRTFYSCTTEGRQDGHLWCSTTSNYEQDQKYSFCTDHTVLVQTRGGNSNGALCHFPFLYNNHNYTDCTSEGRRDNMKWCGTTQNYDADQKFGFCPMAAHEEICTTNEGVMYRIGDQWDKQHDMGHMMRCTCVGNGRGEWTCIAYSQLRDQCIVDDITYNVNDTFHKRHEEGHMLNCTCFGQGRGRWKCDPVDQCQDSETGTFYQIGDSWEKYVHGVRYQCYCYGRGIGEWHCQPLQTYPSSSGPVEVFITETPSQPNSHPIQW
T3 sequence (P02751 32-290 limits assumed): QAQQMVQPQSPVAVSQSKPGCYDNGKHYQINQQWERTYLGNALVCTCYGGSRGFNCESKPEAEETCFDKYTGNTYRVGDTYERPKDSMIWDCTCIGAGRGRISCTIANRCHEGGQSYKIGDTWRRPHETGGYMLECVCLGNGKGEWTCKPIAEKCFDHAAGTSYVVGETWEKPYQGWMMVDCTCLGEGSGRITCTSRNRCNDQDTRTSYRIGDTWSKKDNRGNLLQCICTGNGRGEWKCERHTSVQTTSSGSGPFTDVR
Chain of Bovine serum albumin (BSA) (P02769 25-607 limits assumed): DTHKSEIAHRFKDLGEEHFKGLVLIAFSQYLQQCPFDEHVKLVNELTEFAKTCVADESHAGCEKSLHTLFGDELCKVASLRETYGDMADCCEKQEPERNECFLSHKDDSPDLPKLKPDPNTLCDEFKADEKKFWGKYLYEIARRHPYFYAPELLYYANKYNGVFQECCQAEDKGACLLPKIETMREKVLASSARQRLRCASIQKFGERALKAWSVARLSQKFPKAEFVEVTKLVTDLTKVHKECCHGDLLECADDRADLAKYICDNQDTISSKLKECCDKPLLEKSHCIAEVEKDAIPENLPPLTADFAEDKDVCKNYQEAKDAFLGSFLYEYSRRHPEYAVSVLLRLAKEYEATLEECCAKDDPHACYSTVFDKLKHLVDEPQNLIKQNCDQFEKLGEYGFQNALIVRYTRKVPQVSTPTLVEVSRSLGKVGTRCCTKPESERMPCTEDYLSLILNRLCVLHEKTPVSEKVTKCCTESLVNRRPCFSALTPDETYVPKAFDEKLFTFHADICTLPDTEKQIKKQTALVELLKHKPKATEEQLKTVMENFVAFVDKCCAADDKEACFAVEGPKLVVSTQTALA

B1: FlpA-D1-GST (aa35-132) (other)
chain: PAVNESLPKVESLKSLSDMSNIAFEWEPLYNENIKGFYLYRSSDENPDFKLVGTIKDKFQTHYVDTKLEPGTKYRYMMKSFNEQGQISEDGKVIEVST
notes: not shown: glutathione S-transferase (GST) tag of vector pGEX-5x-1, N-terminal
Take B1: the binding result is “no binding (tested: up to 1000 nM)” in experiment [1] and “no binding” in experiment [2].

B2: FlpA-D2-GST (aa135-226) (other)
chain: RLEAVPFVQAVTNLPNRIKLIWRPHPDFRVDSYIIERTKGDDKEFKKIAEVKNRLNAEYIDSDLKPNENSSYRIIAVSFNGIKSGSSQVVSS
notes: also called FlpA domain 2; not shown: glutathione S-transferase (GST) tag of vector pGEX-5x-1, N-terminal
For B2, the binding result in experiment [3] was “no binding (tested: up to 1000 nM)”; in the experiment with Ovalbumin, “no binding (tested: up to 1000 nM)”; in experiment [4], “binds”.

With KKIAEVKNRLNAEYIDSDLKPNENSSYRII (Synthetic 30mer of FlpA-D2) [FlpA peptide P4 (K180-I209)], the binding result in experiment [5] is “no binding”.

B3: FlpA peptide P5 (D195-V224) (peptide)
peptide: DSDLKPNENSSYRIIAVSFNGIKSGSSQVV
notes: Synthetic 30mer of FlpA-D2; Used as a negative control in later ELISAs
As to B3, the binding result in experiment [5] is “no binding”.

For DSYIIERTKGDDKEFKKIAEVKNRLNAEYI (Synthetic 30mer of FlpA-D2) [FlpA peptide P3 (D165-I194)], the binding result in experiment [5] is on record as “no binding (tested: Fn up to 20 µg/ml)”.

B4: FlpA-GST (aa35-410) (other)
chain: PAVNESLPKVESLKSLSDMSNIAFEWEPLYNENIKGFYLYRSSDENPDFKLVGTIKDKFQTHYVDTKLEPGTKYRYMMKSFNEQGQISEDGKVIEVSTAPRLEAVPFVQAVTNLPNRIKLIWRPHPDFRVDSYIIERTKGDDKEFKKIAEVKNRLNAEYIDSDLKPNENSSYRIIAVSFNGIKSGSSQVVSSTSKALPPQVEHLSASTDGSSKIILTWDAPTYEDFSYYKVYSTSSSFLPFSVLAKTDKNSYEDIVEGAGKSKYYKVTMVDKDGLESPMPKDGVEGKTLGNPLAPSIILAQSTSEGINLEWSDNDTRAVEYEVRRYGGEQNAVFKGIKEKRLKDVKALPGVEYSYEVIAIDSAGLRSEPSSKVKAA
notes: also called full-length FlpA-GST; FlpA full-length; not shown: glutathione S-transferase (GST) tag of vector pGEX-5x-1, N-terminal
Turning to B4, the binding result in experiment [3] is recorded as “no binding (tested: up to 1000 nM)”; with Ovalbumin, “no binding (tested: up to 1000 nM)”; in experiment [6], “no binding”.

For the molecule FVQAVTNLPNRIKLIWR (Synthetic peptide) [FlpA peptide P7 (F141-R157)], the binding result in experiment [5] is “no binding”.

B5: CadF peptide FRLS- (aa118-133) (peptide)
peptide: YDNKSGGFGHYGAGVK
notes: Synthetic negative control peptide; also called CadF FRLS^-
B5: in experiment [5], the binding result is reported as “no binding”.

B6: FlpA-D3-GST (aa232-410) (other)
chain: PPQVEHLSASTDGSSKIILTWDAPTYEDFSYYKVYSTSSSFLPFSVLAKTDKNSYEDIVEGAGKSKYYKVTMVDKDGLESPMPKDGVEGKTLGNPLAPSIILAQSTSEGINLEWSDNDTRAVEYEVRRYGGEQNAVFKGIKEKRLKDVKALPGVEYSYEVIAIDSAGLRSEPSSKVKAA
notes: as for B1
Consider B6, for which the figures for the binding result in experiment [1] and in experiment [2] were “no binding (tested: up to 1000 nM)” and “no binding”, respectively.
